Assay results: patent publication US5616558A, “Medicaments comprising glicentin as active ingredient” (Nisshin Flour Milling Co., Ltd., priority 1992, dated 1997)

Assays:
male MALB/c mice = assay: intraperitoneal administration to mice, observation of appearance; format: in vivo; conditions: 10 mg/kg intraperitoneally, male MALB/c mice (6 weeks age)
arginine loaded dogs = assay: infusion into the pancreatic artery of arginine loaded dogs; plasma insulin, plasma glucagon and blood glucose measured; format: in vivo, mongrel dogs; conditions: 100 pmol or 400 pmol glicentin solution infused into the pancreatic artery for 10 minutes
Method: Healthy mongrel dogs weighing 13 to 17 kg were subjected to the test after an overnight fast (A. Ohneda et al., Hotre. Metab. Res., 9, 447-452 (1977)).
The animals were anesthetized with sodium pentobarbital (Nembutal®) and their abdomens were opened. […] After the operation was completed, saline solution containing 0.5% arginine was infused into the pancreatic artery at a constant rate of 2 ml/min through the cannula using an infusion pump. […] 4 ml portions of blood samples for hormone assay were collected at various intervals into a glass tube containing 1000 KIU aprotinine and 10 mg EDTA.
The plasma insulin was measured in accordance with a known method mentioned in C.
The blood glucose was measured for blood drawn from the femoral artery by the glucose oxidase method using a test kit for the determination of blood glucose (available from Wako Pure Chemical Industries, Japan under the trade name of "Glucose B-Test Wako").

B1: glicentin: peptide comprising 69 amino acid residues, major component of gut glucagon-like immunoreactants; produced by recombinant DNA in E. coli (protein)
chain: RSLQDTEEKSRSFSASQADPLSDPDQMNEDKRHSQGTFTSDYSKYLDSRRAQDFVQWLMNTKRNRNNIA
Male MALB/c mice
  change in appearance: no change in appearance
Arginine loaded dogs; 0.5% arginine infusion, anesthetized dogs
  insulin secretion (plasma insulin, IRI): stimulates insulin secretion
Arginine loaded dogs; antiserum G 21 specific for C-terminal portion of glucagon
  glucagon level (IRG(G 21)): not increased
Arginine loaded dogs; blood from femoral artery, glucose oxidase method
  blood glucose levels: no change
